T1: mouse secretagogin V233A (mouse, UniProt Q91WD9 1-276, V233A)
T1 sequence: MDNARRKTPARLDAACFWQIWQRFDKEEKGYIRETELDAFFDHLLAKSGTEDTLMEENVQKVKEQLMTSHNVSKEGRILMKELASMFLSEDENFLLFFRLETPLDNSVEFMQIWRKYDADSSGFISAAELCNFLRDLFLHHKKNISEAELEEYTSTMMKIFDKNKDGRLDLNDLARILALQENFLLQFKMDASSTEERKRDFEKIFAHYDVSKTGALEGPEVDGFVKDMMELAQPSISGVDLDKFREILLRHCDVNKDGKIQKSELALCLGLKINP

T2: mouse secretagogin M229E (mouse, UniProt Q91WD9 1-276, M229E)
T2 sequence: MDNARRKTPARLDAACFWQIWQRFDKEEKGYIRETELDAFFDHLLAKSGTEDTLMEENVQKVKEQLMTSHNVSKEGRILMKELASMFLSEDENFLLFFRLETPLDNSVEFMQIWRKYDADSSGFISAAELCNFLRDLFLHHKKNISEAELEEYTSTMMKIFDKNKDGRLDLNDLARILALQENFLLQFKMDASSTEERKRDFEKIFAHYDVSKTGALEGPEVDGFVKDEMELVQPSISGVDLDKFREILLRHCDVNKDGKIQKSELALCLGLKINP

T3: mouse secretagogin M229A (mouse, UniProt Q91WD9 1-276, M229A)
T3 sequence: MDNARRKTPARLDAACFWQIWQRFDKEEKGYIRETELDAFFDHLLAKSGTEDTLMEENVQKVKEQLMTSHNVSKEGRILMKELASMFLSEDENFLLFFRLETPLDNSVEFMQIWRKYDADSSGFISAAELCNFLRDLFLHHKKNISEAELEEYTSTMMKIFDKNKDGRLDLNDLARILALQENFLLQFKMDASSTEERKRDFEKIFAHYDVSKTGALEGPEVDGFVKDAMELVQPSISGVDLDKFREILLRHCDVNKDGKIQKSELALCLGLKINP

T4: mouse secretagogin R198A (mouse, UniProt Q91WD9 1-276, R198A)
T4 sequence: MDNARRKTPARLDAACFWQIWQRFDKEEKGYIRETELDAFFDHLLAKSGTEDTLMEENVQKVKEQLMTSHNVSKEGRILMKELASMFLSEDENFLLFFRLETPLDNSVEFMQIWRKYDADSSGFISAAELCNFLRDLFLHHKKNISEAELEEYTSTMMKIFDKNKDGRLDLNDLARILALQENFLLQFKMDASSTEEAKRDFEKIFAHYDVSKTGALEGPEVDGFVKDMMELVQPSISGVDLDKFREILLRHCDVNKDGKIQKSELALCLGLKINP

B1: helix-b of the Habc domain of mouse syntaxin-4 (domain or fragment)
chain: TPLPEESMKQGLQNLREEIKQLGREVRAQLKAIEPQKE

How the values were obtained:
Assay in all cases: ITC
[1] = biological target: B1
[2] = biological target: C-terminal SNARE domain of mouse SNAP-25 (mouse, UniProt P60879 140-206)
mouse secretagogin V233A = biological target: T1, mouse secretagogin V233A
mouse secretagogin M229E = biological target: T2, mouse secretagogin M229E
mouse secretagogin M229A = biological target: T3, mouse secretagogin M229A
mouse secretagogin R198A = biological target: T4, mouse secretagogin R198A

Chain of C-terminal SNARE domain of mouse SNAP-25 (P60879 140-206): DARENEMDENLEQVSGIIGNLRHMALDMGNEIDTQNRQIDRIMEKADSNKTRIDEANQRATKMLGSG

Binder | Kd [1] [nM] | Kd [2] [nM] | Kd (mouse secretagogin V233A) [nM] | Kd (mouse secretagogin M229E) [nM] | Kd (mouse secretagogin M229A) [nM] | Kd (mouse secretagogin R198A) [nM]
mouse secretagogin (natural protein) MDNARRKTPARLDAACFWQIWQRFDKEEKGYIRETELDAFFDHLLAKSGTEDTLMEENVQKVKEQLMTSHNVSKEGRILMKELASMFLSEDENFLLFFRLETPLDNSVEFMQIWRKYDADSSGFISAAELCNFLRDLFLHHKKNISEAELEEYTSTMMKIFDKNKDGRLDLNDLARILALQENFLLQFKMDASSTEERKRDFEKIFAHYDVSKTGALEGPEVDGFVKDMMELVQPSISGVDLDKFREILLRHCDVNKDGKIQKSELALCLGLKINP | 407 | 21.9 | – | – | – | –
B1 | – | – | 125 | 5210 | 1620 | 808
